Residue numbers refer to the chain shown, from its start. Numbers in names are those of the source.
T1: MCM P193G (Methanothermobacter thermautotrophicus, UniProt O27798 1-666, P193G)
T1 sequence: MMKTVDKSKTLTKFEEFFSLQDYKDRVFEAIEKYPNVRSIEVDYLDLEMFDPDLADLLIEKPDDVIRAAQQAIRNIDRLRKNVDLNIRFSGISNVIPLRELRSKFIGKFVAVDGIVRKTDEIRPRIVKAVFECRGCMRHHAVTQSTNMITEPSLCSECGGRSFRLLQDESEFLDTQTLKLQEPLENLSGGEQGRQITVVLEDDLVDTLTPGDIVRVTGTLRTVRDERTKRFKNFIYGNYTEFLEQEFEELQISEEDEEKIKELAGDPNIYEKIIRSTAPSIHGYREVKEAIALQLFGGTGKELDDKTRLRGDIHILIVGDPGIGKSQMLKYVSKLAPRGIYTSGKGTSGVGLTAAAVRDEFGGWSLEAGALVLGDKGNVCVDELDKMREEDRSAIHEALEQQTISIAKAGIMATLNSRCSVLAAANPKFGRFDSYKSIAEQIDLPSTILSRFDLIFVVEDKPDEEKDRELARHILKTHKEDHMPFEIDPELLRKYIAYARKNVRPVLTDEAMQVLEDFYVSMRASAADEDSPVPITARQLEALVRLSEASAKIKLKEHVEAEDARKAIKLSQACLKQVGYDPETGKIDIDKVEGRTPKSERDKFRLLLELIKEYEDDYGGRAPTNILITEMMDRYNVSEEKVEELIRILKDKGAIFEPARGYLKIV

T2: MCM E182R (Methanothermobacter thermautotrophicus, UniProt O27798 1-666, E182R)
T2 sequence: T1 sequence with E182R, G193P

T3: MCM beta-finger mutant (Methanothermobacter thermautotrophicus, UniProt O27798 1-666, R227A;K229A)
T3 sequence: T1 sequence with G193P, R227A, K229A

B1: Methanothermobacter thermautotrophicus MCM protein, wild-type (enzyme, UniProt O27798 1-666, looked up)
chain: T1 sequence with G193P
B2: Methanothermobacter thermautotrophicus MCM protein, E182R mutant (enzyme, UniProt O27798 1-666, looked up)
chain: T1 sequence with E182R, G193P
B3: Methanothermobacter thermautotrophicus MCM protein, Q181A mutant (enzyme, UniProt O27798 1-666, looked up)
chain: T1 sequence with Q181A, G193P
B4: Methanothermobacter thermautotrophicus MCM protein, E185R mutant (enzyme, UniProt O27798 1-666, looked up)
chain: T1 sequence with E185R, G193P
B5: Methanothermobacter thermautotrophicus MCM protein, P193G mutant (enzyme, UniProt O27798 1-666, looked up)
chain: T1 sequence
B6: Methanothermobacter thermautotrophicus MCM protein, L184A mutant (enzyme, UniProt O27798 1-666, looked up)
chain: T1 sequence with L184A, G193P
B7: Methanothermobacter thermautotrophicus MCM protein, G190A mutant (enzyme, UniProt O27798 1-666, looked up)
chain: T1 sequence with G190A, G193P

Legend:
[1] = biological target: M. thermautotrophicus MCM (MTH1770) (Methanothermobacter thermautotrophicus, UniProt O27798); details: labelled compound; Hepes-NaOH pH 7.5, 5 mM MgCl2, 60°C
Sequence of M. thermautotrophicus MCM (MTH1770) (O27798 1-666): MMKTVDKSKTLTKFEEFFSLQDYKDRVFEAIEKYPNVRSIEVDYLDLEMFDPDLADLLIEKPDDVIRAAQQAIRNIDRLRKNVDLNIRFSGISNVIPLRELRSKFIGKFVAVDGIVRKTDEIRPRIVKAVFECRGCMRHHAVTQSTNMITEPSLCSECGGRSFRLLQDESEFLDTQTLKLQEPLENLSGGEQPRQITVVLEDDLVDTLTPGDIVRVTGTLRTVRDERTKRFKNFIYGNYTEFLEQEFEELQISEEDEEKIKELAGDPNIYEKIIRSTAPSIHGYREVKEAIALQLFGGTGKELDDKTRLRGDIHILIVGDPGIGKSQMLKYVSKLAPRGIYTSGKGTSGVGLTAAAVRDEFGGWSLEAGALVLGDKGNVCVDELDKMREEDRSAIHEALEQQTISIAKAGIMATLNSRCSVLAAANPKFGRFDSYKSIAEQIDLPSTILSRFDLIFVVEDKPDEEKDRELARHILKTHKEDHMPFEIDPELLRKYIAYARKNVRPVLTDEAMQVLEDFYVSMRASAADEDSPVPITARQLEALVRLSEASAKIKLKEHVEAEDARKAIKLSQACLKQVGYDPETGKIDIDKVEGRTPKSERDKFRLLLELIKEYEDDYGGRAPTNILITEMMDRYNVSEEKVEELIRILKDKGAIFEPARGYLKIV

SEC = biological target: the molecule itself; assay: SEC
MCM P193G = biological target: T1, MCM P193G; assay: fluorescence anisotropy
MCM E182R = biological target: T2, MCM E182R; assay: fluorescence anisotropy
MCM beta-finger mutant = biological target: T3, MCM beta-finger mutant; assay: fluorescence anisotropy

| Molecule | stoichiometry N (SEC) | further results |
| --- | --- | --- |
| Nc1ncnc2c1ncn2[C@@H]1O[C@H](COP(=O)(O)OP(=O)(O)OP(=O)(O)O)[C@@H](O)[C@H]1O [ATP] |  | % ATP cross-linked relative to wild type [1]: UV crosslinking of ATP to the various MCM proteins was performed |
| B1 | 12 |  |
| B2 | 12 |  |
| B3 | 12 |  |
| B4 | 12 |  |
| B5 | 12 |  |
| B6 | 12 |  |
| B7 | 12 |  |
| CGCAGATAACAGTTGTCCTGGAGAACGACCTGGTTGACACCCTCACACCC (ssDNA) [50-mer Cy3-ssDNA] |  | binding result (MCM P193G): binds; binding result (MCM E182R): binds; binding result (MCM beta-finger mutant): no binding |
